In assay [1] the target is T1, amino acid residues 26-148 of human ANGPTL4 fused in-line to mouse IgG2a (hANGPTL4-mFc) (human).
T1 chain: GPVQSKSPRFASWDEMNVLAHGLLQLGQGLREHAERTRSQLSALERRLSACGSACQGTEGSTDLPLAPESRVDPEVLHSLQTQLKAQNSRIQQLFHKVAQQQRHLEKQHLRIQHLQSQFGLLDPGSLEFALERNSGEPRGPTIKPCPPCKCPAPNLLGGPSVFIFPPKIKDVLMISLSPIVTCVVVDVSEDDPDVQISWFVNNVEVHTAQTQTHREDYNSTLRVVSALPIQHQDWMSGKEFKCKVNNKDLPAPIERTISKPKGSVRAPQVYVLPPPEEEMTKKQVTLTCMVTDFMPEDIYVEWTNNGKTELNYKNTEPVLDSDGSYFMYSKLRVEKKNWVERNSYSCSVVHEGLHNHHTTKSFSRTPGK
Nature of the assay: cell-based or functional assay.

Assay [2] has as its target T2, full-length hANGPTL4 (amino acid residues 26-406 of SEQ ID NO:476) with a C-terminal hexa-histidine tag (human, UniProt Q9BY76 26-406).
T2 sequence: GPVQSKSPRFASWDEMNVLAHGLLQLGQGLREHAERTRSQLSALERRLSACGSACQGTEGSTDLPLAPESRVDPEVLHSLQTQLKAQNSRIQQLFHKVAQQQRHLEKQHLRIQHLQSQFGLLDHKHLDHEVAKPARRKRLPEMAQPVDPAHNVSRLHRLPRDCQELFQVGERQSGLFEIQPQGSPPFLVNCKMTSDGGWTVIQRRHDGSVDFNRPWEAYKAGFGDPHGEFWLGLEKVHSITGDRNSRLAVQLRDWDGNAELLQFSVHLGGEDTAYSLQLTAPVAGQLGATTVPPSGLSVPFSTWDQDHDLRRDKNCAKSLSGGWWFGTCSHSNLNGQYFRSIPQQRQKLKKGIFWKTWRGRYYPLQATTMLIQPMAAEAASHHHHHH
Nature of the assay: cell-based or functional assay.

Assay [3] addresses T1, amino acid residues 26-148 of human …. Nature of the assay: SPR (Biacore), 25° C., pH 7.2, antigen captured by anti-mFc. The protocol: (§1) Kinetic analysis was performed to measure kₐ and kd, and KD values and half-life of antigen/antibody complex dissociation were calculated. The results are shown in Table 4 (H1H268P) and Table 5 (H1H284P).
The target in assay [4] is T2, full-length hANGPTL4 (amino acid …). Nature of the assay: SPR (Biacore), 25° C., pH 5.75, antigen amino-coupled 450 RU. The procedure:
as §1
On the technique in general: In SPR one partner is held on a chip, and binding of the other changes the refractive index at the surface.

Assay [5] addresses T3, cynomolgus monkey ANGPTL4 N-terminal region (amino acid residues 1-130 of SEQ ID NO:490) with a C-terminal … (cynomolgus monkey (Macaca fascicularis), UniProt Q9BY76 26-130 (human entry)).
T3 construct: also called MfANGPTL4(1-130)-His
T3 chain: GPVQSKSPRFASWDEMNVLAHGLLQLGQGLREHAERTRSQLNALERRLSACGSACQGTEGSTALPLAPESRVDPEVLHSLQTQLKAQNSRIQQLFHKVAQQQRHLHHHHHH
Nature of the assay: SPR (Biacore), 25° C., pH 7.2, antigen amino-coupled 1,028 RU. The procedure:
as §1

For assay [6], the target named is T3, cynomolgus monkey ANGPTL4 N-terminal …. Nature of the assay: SPR (Biacore), 25° C., pH 5.75, antigen amino-coupled 1,028 RU. The protocol: as §1
Assay [7] addresses T1, amino acid residues 26-148 of human …. Nature of the assay: SPR (Biacore T100), hANGPTL4-mFc captured by anti-mouse IgG, antibody injected, 25° C. The protocol:
(§2) Antigen-antibody binding and dissociation were monitored in real time at 25° C. and 37° C. Kinetic analysis was performed to calculate KD and half-life of antigen/antibody complex dissociation.

The target is the same in assay [8]. Nature of the assay: SPR (Biacore T100), hANGPTL4-mFc captured by anti-mouse IgG, antibody injected, 37° C. The protocol: as §2
Assay [9] deals with T3, cynomolgus monkey ANGPTL4 N-terminal …. Nature of the assay: SPR (Biacore), 25° C., pH 5.75, antigen amino-coupled 1,028 RU; Full mAb, not Fab; pH 5.75. The procedure: as §1

B1: H1H268P (antibody, V domains shown)
VH: QVQLQESGAGLLKPSETLSLTCTVYGGSFSIHHWTWIRHPPGKGLEWIGEINHRGSTNYNPSLKSRVTISIDTSKNQFSLKLSAVTAADTAVYYCARGLRFLDWLSSYFDYWGQGTLVTVSS
VL: DIQMTQSPSSLSASVGDRVTITCRASQGISDYLAWYQQKPGKVPNLLIYAASALQSGVPSRFSGSGSGTDFTLTISSLQPEDVATYYCQNYNTAPLTFGGGTKVEIK
notes: also called entire H1H268 mAb; Full mAb
By Kd is commonly meant the equilibrium constant for the complex coming apart. As usually defined, the koff is the rate constant with which the complex falls apart. Broadly, the kon is the second-order rate constant of association. Take B1: the “IC50 (nM) in the LPL inhibition assay, constant ANGPTL4 2 nM” value in assay [1] worked out at 0.67 nM. Moreover, the “IC50 (nM) in the LPL inhibition assay, constant ANGPTL4 10 nM” value in assay [2] was 0.2 nM. Besides, the Kd in assay [3] is 0.629 nM; in [4], 0.483 nM; in [5], 0.122 nM; in assay [7] it was 0.275 nM; in assay [8] it was 0.389 nM; in [9], 0.0772 nM. Besides, the koff in [3] was 9.59e-05 s⁻¹; in assay [4], 0.000446 s⁻¹; in [5], 4.76e-05 s⁻¹; in [9], 8.24e-05 s⁻¹. Moreover, the kon in assay [3] is 153000 M⁻¹ s⁻¹; in [4], 923000 M⁻¹ s⁻¹; in assay [5], 392000 M⁻¹ s⁻¹; in assay [9], 1.07e+06 M⁻¹ s⁻¹. Further, the t1/2 in assay [3] turned out to be 2 h; in assay [4], 0.433 h; in assay [5], 4.05 h; in assay [6] it was 2.33 h; in assay [7], 1.33 h; in assay [8], 0.95 h.

B2: H1H284P (antibody, V domains shown)
VH: QVQLVESGGGVVQPGRSLRLSCAASGFTFSSYGMHWVRQAPGKGLEWMAVISFDGGNKNNADSVKGRFTISRDNSKNTLYLQMNSLRAEDTAVYYCAKEGDRSGHPYFYYYGLDVWGQGTTVTVS
VL: DIQLTQSPSFLSASVGDRVTITCWASQGISSYLAWYQQKPGKAPKLLIYAASTLQSGVPSRFSGSGSETEFTLTISSLQPEDFATYYCQQLHSYPLTFGGGTKVEIK
notes: also called entire H1H284 mAb; Full mAb
For B2, the “IC50 (nM) in the LPL inhibition assay, constant ANGPTL4 2 nM” value in assay [1] is 0.33 nM. For the same molecule, the “IC50 (nM) in the LPL inhibition assay, constant ANGPTL4 10 nM” value in [2] amounted to 0.42 nM. Also, the Kd is 0.196 nM in assay [3]; 0.141 nM in assay [4]; 0.125 nM in assay [5]; 0.168 nM in assay [7]; 0.349 nM in assay [8]; 0.0543 nM in assay [9]. In addition, the koff turned out to be 5.36e-05 s⁻¹ in assay [3], 0.000272 s⁻¹ in [4], 5.83e-05 s⁻¹ in assay [5] and 8.42e-05 s⁻¹ in assay [6]. Further, the kon in assay [3] was found to be 274000 M⁻¹ s⁻¹; in assay [4], 1.93e+06 M⁻¹ s⁻¹; in assay [5], 467000 M⁻¹ s⁻¹; in assay [6], 1.55e+06 M⁻¹ s⁻¹. Also, the t1/2 in assay [3] came out at 3.6 h; in assay [4] it was 0.7 h; in [5] it was 3.3 h; in assay [6], 2.28 h; in assay [7], 2.7 h; in assay [8] it was 1.35 h.

(Values after patent US20130266574A1 (Regeneron, published 2013).)
